Source: US20210246166A1 (Bayer, published 2021)
Numbered stars: 1 amine (or outer) side, 2 acyl side, 3 side chain; on linkers, the order of the positions; unused ones are H or OH. Bridge positions count the residues as written; N and C are the ends. Square brackets hold non-standard residues; d marks the D form. Ends that are not written are not given here. * marks the point of attachment. (S)‑4‑Piperazine‑2‑carboxylic acid = (S)-4-piperazine-2-carboxylic acid; 4‑Aminomethylphenylacetic acid = O=C(Cc1ccc(CN[*:1])cc1)[*:2]; NHCH2(1,3-C6H4)CH2CO = O=C(Cc1cccc(CN[*:1])c1)[*:2]; Piperidin‑4‑ylacetic acid = O=C(CC1CCNCC1)*; Oic = O=C(O)[C@@H]1C[C@@H]2CCCC[C@@H]2N1; PEG6 = NCCOCCOCCOCCOCCOCCOCCC(=O)O; tBuAla = CC(C)(C)C[C@H](N)C(=O)O; Pen = CC(C)(S)[C@H](N)C(=O)O; NMeC = CN[C@@H](CS)C(=O)O; PEG3 = NCCOCCOCCOCCC(=O)O; Orn = NCCC[C@H](N)C(=O)O; Ahx = NCCCCCC(=O)O; Sar = CNCC(=O)O

B1: ((N-Me)G)-IC+SRSLP-(Oic)-I-(Pen)+IP-(PEG4-CH2CO2H (15 atoms))-OH (peptide)
peptide: [Sar]ICSRSLP[Oic]I[Pen]IP[PEG4‑CH2CO2H (15 atoms)]-OH
modifications: disulfide 3-11
B2: ((N-Me)G)-IC+SRSLP-(Oic)-I-(Pen)+IPDD-OH (peptide)
peptide: [Sar]ICSRSLP[Oic]I[Pen]IPDD-OH
modifications: disulfide 3-11; N-terminus assumed
SMILES: CC[C@H](C)[C@H](NC(=O)CNC)C(=O)N[C@H]1CSSC(C)(C)[C@@H](C(=O)N[C@H](C(=O)N2CCC[C@H]2C(=O)N[C@@H](CC(=O)O)C(=O)N[C@@H](CC(=O)O)C(=O)O)[C@@H](C)CC)NC(=O)[C@H]([C@@H](C)CC)NC(=O)[C@@H]2C[C@@H]3CCCC[C@@H]3N2C(=O)[C@@H]2CCCN2C(=O)[C@H](CC(C)C)NC(=O)[C@H](CO)NC(=O)[C@H](CCCNC(=N)N)NC(=O)[C@H](CO)NC1=O
B3: ((N-Me)G)-IC+SRSLP-(Oic)-I-(Pen)+IP-(3-Aminomethylphenylacetic acid)-OH (peptide)
peptide: [Sar]ICSRSLP[Oic]I[Pen]IP[NHCH2(1,3-C6H4)CH2CO]-OH
modifications: disulfide 3-11; N-terminus assumed
SMILES: CC[C@H](C)[C@H](NC(=O)CNC)C(=O)N[C@H]1CSSC(C)(C)[C@@H](C(=O)N[C@H](C(=O)N2CCC[C@H]2C(=O)NCc2cccc(CC(=O)O)c2)[C@@H](C)CC)NC(=O)[C@H]([C@@H](C)CC)NC(=O)[C@@H]2C[C@@H]3CCCC[C@@H]3N2C(=O)[C@@H]2CCCN2C(=O)[C@H](CC(C)C)NC(=O)[C@H](CO)NC(=O)[C@H](CCCNC(=N)N)NC(=O)[C@H](CO)NC1=O
B4: (Orn)-IC+SRSLP-(Oic)-I-(Pen)+IPD-OH (peptide)
peptide: [Orn]ICSRSLP[Oic]I[Pen]IPD-OH
modifications: disulfide 3-11; N-terminus assumed
SMILES: CC[C@H](C)[C@H](NC(=O)[C@@H](N)CCCN)C(=O)N[C@H]1CSSC(C)(C)[C@@H](C(=O)N[C@H](C(=O)N2CCC[C@H]2C(=O)N[C@@H](CC(=O)O)C(=O)O)[C@@H](C)CC)NC(=O)[C@H]([C@@H](C)CC)NC(=O)[C@@H]2C[C@@H]3CCCC[C@@H]3N2C(=O)[C@@H]2CCCN2C(=O)[C@H](CC(C)C)NC(=O)[C@H](CO)NC(=O)[C@H](CCCNC(=N)N)NC(=O)[C@H](CO)NC1=O
B5: (Orn)-IC+SRS-((tBu)A)-PPI-((N-Me)C)+IPD-OH (peptide)
peptide: [Orn]ICSRS[tBuAla]PPI[NMeC]IPD-OH
modifications: disulfide 3-11; N-terminus assumed
SMILES: CC[C@H](C)[C@H](NC(=O)[C@@H](N)CCCN)C(=O)N[C@H]1CSSC[C@@H](C(=O)N[C@H](C(=O)N2CCC[C@H]2C(=O)N[C@@H](CC(=O)O)C(=O)O)[C@@H](C)CC)N(C)C(=O)[C@H]([C@@H](C)CC)NC(=O)[C@@H]2CCCN2C(=O)[C@@H]2CCCN2C(=O)[C@H](CC(C)(C)C)NC(=O)[C@H](CO)NC(=O)[C@H](CCCNC(=N)N)NC(=O)[C@H](CO)NC1=O
B6: ((N-Me)G)-IC+SRSLP-(Oic)-I-(Pen)+IP-(*Dap)-OH (peptide)
peptide: [Sar]ICSRSLP[Oic]I[Pen]IPX-OH
modifications: disulfide 3-11; not fully specified (residue 14); printed as ((N-Me)G)-IC+SRSLP-(Oic)-I-(Pen)+IP-(*Dap)-OH; also: C-terminal Dap joined through its 3-amino group
B7: (beta-P)-IC+SRS-((tBu)A)-PPI-(Pen)+IPD-OH (peptide)
peptide: PICSRS[tBuAla]PPI[Pen]IPD-OH
modifications: disulfide 3-11; N-terminus assumed
SMILES: CC[C@H](C)[C@H](NC(=O)[C@@H]1CCCN1)C(=O)N[C@H]1CSSC(C)(C)[C@@H](C(=O)N[C@H](C(=O)N2CCC[C@H]2C(=O)N[C@@H](CC(=O)O)C(=O)O)[C@@H](C)CC)NC(=O)[C@H]([C@@H](C)CC)NC(=O)[C@@H]2CCCN2C(=O)[C@@H]2CCCN2C(=O)[C@H](CC(C)(C)C)NC(=O)[C@H](CO)NC(=O)[C@H](CCCNC(=N)N)NC(=O)[C@H](CO)NC1=O
B8: aIC+SRSLP-(Oic)-I-(Pen)-+IP-(3-Aminomethylphenylacetic acid)-OH (peptide)
peptide: [dA]ICSRSLP[Oic]I[Pen]IP[NHCH2(1,3-C6H4)CH2CO]-OH
modifications: disulfide 3-11; N-terminus assumed
SMILES: CC[C@H](C)[C@H](NC(=O)[C@@H](C)N)C(=O)N[C@H]1CSSC(C)(C)[C@@H](C(=O)N[C@H](C(=O)N2CCC[C@H]2C(=O)NCc2cccc(CC(=O)O)c2)[C@@H](C)CC)NC(=O)[C@H]([C@@H](C)CC)NC(=O)[C@@H]2C[C@@H]3CCCC[C@@H]3N2C(=O)[C@@H]2CCCN2C(=O)[C@H](CC(C)C)NC(=O)[C@H](CO)NC(=O)[C@H](CCCNC(=N)N)NC(=O)[C@H](CO)NC1=O
B9: (Piperidin-4-ylacetic acid)-IC+SRS-((tBu)A)-PPIC+IPD-OH (peptide)
peptide: {Piperidin‑4‑ylacetic acid}-ICSRS[tBuAla]PPICIPD-OH
modifications: disulfide 2-10
SMILES: CC[C@H](C)[C@H](NC(=O)CC1CCNCC1)C(=O)N[C@H]1CSSC[C@@H](C(=O)N[C@H](C(=O)N2CCC[C@H]2C(=O)N[C@@H](CC(=O)O)C(=O)O)[C@@H](C)CC)NC(=O)[C@H]([C@@H](C)CC)NC(=O)[C@@H]2CCCN2C(=O)[C@@H]2CCCN2C(=O)[C@H](CC(C)(C)C)NC(=O)[C@H](CO)NC(=O)[C@H](CCCNC(=N)N)NC(=O)[C@H](CO)NC1=O
B10: ((N-Me))-GIC+SRSLP-(Oic)-I-(Pen)+I-((S)-4-Piperazine-2-carboxylic acid)-OH (peptide)
peptide: [Sar]ICSRSLP[Oic]I[Pen]I[(S)‑4‑Piperazine‑2‑carboxylic acid]-OH
modifications: disulfide 3-11
B11: ((N-Me)G)-IC+SRSLP-(Oic)-I-(Pen)+IP-(PEG5(22 atoms))-OH (peptide)
peptide: [Sar]ICSRSLP[Oic]I[Pen]IP[PEG6]-OH
modifications: disulfide 3-11; N-terminus assumed
SMILES: CC[C@H](C)[C@H](NC(=O)CNC)C(=O)N[C@H]1CSSC(C)(C)[C@@H](C(=O)N[C@H](C(=O)N2CCC[C@H]2C(=O)NCCOCCOCCOCCOCCOCCOCCC(=O)O)[C@@H](C)CC)NC(=O)[C@H]([C@@H](C)CC)NC(=O)[C@@H]2C[C@@H]3CCCC[C@@H]3N2C(=O)[C@@H]2CCCN2C(=O)[C@H](CC(C)C)NC(=O)[C@H](CO)NC(=O)[C@H](CCCNC(=N)N)NC(=O)[C@H](CO)NC1=O
B12: ((N-Me)G)-IC+SRSLP-(Oic)-I-(Pen)+IP-(4-Aminomethylphenylacetic acid)-OH (peptide)
peptide: [Sar]ICSRSLP[Oic]I[Pen]IP[4‑Aminomethylphenylacetic acid]-OH
modifications: disulfide 3-11; N-terminus assumed
SMILES: CC[C@H](C)[C@H](NC(=O)CNC)C(=O)N[C@H]1CSSC(C)(C)[C@@H](C(=O)N[C@H](C(=O)N2CCC[C@H]2C(=O)NCc2ccc(CC(=O)O)cc2)[C@@H](C)CC)NC(=O)[C@H]([C@@H](C)CC)NC(=O)[C@@H]2C[C@@H]3CCCC[C@@H]3N2C(=O)[C@@H]2CCCN2C(=O)[C@H](CC(C)C)NC(=O)[C@H](CO)NC(=O)[C@H](CCCNC(=N)N)NC(=O)[C@H](CO)NC1=O
B13: ((N-Me)G)-IC+SRSLP-(Oic)-I-(Pen)+IP-(PEG2(13 atoms))-OH (peptide)
peptide: [Sar]ICSRSLP[Oic]I[Pen]IP[PEG3]-OH
modifications: disulfide 3-11; N-terminus assumed
SMILES: CC[C@H](C)[C@H](NC(=O)CNC)C(=O)N[C@H]1CSSC(C)(C)[C@@H](C(=O)N[C@H](C(=O)N2CCC[C@H]2C(=O)NCCOCCOCCOCCC(=O)O)[C@@H](C)CC)NC(=O)[C@H]([C@@H](C)CC)NC(=O)[C@@H]2C[C@@H]3CCCC[C@@H]3N2C(=O)[C@@H]2CCCN2C(=O)[C@H](CC(C)C)NC(=O)[C@H](CO)NC(=O)[C@H](CCCNC(=N)N)NC(=O)[C@H](CO)NC1=O
B14: ((N-Me)G)-IC+SRSLP-(Oic)-I-(Pen)+IPD-(Ahx)-OH (peptide)
peptide: [Sar]ICSRSLP[Oic]I[Pen]IPD[Ahx]-OH
modifications: disulfide 3-11; N-terminus assumed
SMILES: CC[C@H](C)[C@H](NC(=O)CNC)C(=O)N[C@H]1CSSC(C)(C)[C@@H](C(=O)N[C@H](C(=O)N2CCC[C@H]2C(=O)N[C@@H](CC(=O)O)C(=O)NCCCCCC(=O)O)[C@@H](C)CC)NC(=O)[C@H]([C@@H](C)CC)NC(=O)[C@@H]2C[C@@H]3CCCC[C@@H]3N2C(=O)[C@@H]2CCCN2C(=O)[C@H](CC(C)C)NC(=O)[C@H](CO)NC(=O)[C@H](CCCNC(=N)N)NC(=O)[C@H](CO)NC1=O
B15: ((N-Me)G)-IC+SRSLP-(Oic)-I-(Pen)+IPGD-OH (peptide)
peptide: [Sar]ICSRSLP[Oic]I[Pen]IPGD-OH
modifications: disulfide 3-11; N-terminus assumed
SMILES: CC[C@H](C)[C@H](NC(=O)CNC)C(=O)N[C@H]1CSSC(C)(C)[C@@H](C(=O)N[C@H](C(=O)N2CCC[C@H]2C(=O)NCC(=O)N[C@@H](CC(=O)O)C(=O)O)[C@@H](C)CC)NC(=O)[C@H]([C@@H](C)CC)NC(=O)[C@@H]2C[C@@H]3CCCC[C@@H]3N2C(=O)[C@@H]2CCCN2C(=O)[C@H](CC(C)C)NC(=O)[C@H](CO)NC(=O)[C@H](CCCNC(=N)N)NC(=O)[C@H](CO)NC1=O

Target: Recombinant human MASP2 enzyme (fragment corresponding to amino acids 297-686, C-terminal His Tag) (human, UniProt O00187 297-686)
Assay: cell-based or functional assay

Recombinant human MASP2 enzyme (fragment corresponding to amino acids 297-686, C-terminal His Tag), sequence (O00187 other isoform, or with tags, fused parts or gaps limits assumed): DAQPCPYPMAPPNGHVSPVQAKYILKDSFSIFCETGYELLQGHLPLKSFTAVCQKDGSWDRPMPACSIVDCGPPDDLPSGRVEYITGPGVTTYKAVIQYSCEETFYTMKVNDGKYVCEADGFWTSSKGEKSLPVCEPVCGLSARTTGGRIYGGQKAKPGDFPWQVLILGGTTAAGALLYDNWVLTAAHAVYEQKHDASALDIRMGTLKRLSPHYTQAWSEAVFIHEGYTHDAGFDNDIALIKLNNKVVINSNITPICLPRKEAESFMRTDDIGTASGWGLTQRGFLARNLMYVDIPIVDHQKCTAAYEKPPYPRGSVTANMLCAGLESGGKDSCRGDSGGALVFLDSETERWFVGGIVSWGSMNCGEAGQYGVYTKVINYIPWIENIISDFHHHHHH

Binder	human MASP2 IC50 [nM]
B1	58
B2	40
B3	172
B4	110
B5	175
B6	55
B7	35
B8	37
B9	18
B10	78
B11	51
B12	61
B13	97
B14	120
B15	45

Target: T1, Recombinant human MASP1 enzyme (fragment corresponding to amino acids 297-699, C-terminal His Tag) (human, UniProt P48740 297-699)
T1 sequence: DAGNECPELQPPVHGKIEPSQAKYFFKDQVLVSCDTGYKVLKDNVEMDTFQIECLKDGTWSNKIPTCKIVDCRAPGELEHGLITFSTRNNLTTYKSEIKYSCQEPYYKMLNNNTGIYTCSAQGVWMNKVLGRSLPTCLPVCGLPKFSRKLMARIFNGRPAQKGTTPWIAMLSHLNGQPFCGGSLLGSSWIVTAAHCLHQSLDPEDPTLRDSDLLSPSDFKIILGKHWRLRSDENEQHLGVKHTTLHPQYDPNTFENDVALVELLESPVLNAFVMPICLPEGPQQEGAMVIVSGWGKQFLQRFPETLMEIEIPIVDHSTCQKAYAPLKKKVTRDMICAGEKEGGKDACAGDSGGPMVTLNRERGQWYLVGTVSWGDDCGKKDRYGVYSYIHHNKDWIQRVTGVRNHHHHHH
Assay: cell-based or functional assay

Binder	human MASP1 IC50 [nM]
B1	1.8
B2	0.72
B3	9.6
B4	1.9
B5	5.85
B6	6.6
B7	3
B8	3.7
B9	26
B10	2.4
B11	4
B12	3.8
B13	4.5
B14	0.41
B15	1
